This is an account of results in US20260008817A1, “CYCLIC PEPTIDE OR SALT THEREOF, AND USES THEREOF” (FUJIFILM Corporation, priority 2023, published 2026).

Positions of bridges follow the written chain, without caps; N, C: chain ends. No end group written: not given here. COCH2 = acetyl group that carries the bridge

T1 sequence (P11362 with tags, fused parts or gaps limits assumed): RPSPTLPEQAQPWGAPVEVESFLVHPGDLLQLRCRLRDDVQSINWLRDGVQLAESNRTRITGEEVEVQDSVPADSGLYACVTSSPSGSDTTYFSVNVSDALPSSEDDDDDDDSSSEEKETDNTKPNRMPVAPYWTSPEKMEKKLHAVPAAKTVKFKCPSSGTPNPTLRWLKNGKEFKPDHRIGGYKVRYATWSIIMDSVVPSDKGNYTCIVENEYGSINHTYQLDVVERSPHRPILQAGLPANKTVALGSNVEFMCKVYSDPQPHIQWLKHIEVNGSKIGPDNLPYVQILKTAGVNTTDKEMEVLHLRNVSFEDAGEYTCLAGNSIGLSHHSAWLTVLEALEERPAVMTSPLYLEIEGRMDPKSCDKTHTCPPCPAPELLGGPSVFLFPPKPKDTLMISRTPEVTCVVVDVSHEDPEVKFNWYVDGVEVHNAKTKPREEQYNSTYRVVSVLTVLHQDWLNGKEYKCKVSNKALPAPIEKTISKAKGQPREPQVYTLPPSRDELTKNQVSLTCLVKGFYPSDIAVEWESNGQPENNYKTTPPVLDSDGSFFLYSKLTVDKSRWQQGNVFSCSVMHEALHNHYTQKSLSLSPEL

This assay has as its target T1, Recombinant Human FGFR1 alpha (IIIc) Fc Chimera Protein (Homo sapiens, UniProt P11362).
T1 construct: purchased R&D systems 658-FR-050
Description: ELISA binding affinity of enzymatically synthesized peptide to FGFR. Particulars: ELISA luminescence signal at 10 nmol/L peptide, SEQ ID NO: 239 standardized to 1; enzyme synthesis product. The method, boiled down:
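Cell-free PUREfrex-translated cyclic peptides (Myc/HiBiT-tagged, quantified by HiBiT luminescence) bound 3 h at room temperature to immobilized FGFR1α(IIIc)-Fc, detected with anti-Myc and chemiluminescence. FGFR-specific signal at 10 nmol/L normalized to a reference cyclic peptide and graded A–D.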
As for “168 (ICVYTFDAHAHSYHAALTK(COCH2)I; thioether 2-19 (inferred)) [compound 168]”, the “Evaluation result of binding affinity to FGFR” value (from here on “Evaluation result”) is “A (0.7 or more)”.
Regarding “169 (ICVYTFDAHAHSWHAALTK(COCH2)I; thioether 2-19 (inferred)) [compound 169]”, the “Evaluation result” value is “C (0.1 or more and less than 0.5)”.
For “170 (ICVYTFDAHAHSQHAALTK(COCH2)I; thioether 2-19 (inferred)) [compound 170]”, the “Evaluation result” value is “C (0.1 or more and less than 0.5)”.
“171 (ICVYTFDAHAHSSHAALTK(COCH2)I; thioether 2-19 (inferred)) [compound 171]”: the “Evaluation result” value was “B (0.5 or more and less than 0.7)”.
The same measure for “172 (ICVYTFDAHAHSTHAALTK(COCH2)I; thioether 2-19 (inferred)) [compound 172]”: “B (0.5 or more and less than 0.7)”; for “173 (ICVYTFDAHAHSEHAALTK(COCH2)I; thioether 2-19 (inferred)) [compound 173]”: “C (0.1 or more and less than 0.5)”.
The same measure for “174 (ICVYTFDAHAHSRHAALTK(COCH2)I; thioether 2-19 (inferred)) [compound 174]”: “C (0.1 or more and less than 0.5)”; for “175 (ICVYTFDAHAHSHHAALTK(COCH2)I; thioether 2-19 (inferred)) [compound 175]”: “B (0.5 or more and less than 0.7)”.
The entry for “176 (ICVYTFDAHAHSLAAALTK(COCH2)I; thioether 2-19 (inferred)) [compound 176]” is “A (0.7 or more)”.
As for “177 (ICVYTFDAHAHSLGAALTK(COCH2)I; thioether 2-19 (inferred)) [compound 177]”, the “Evaluation result” value is on record as “A (0.7 or more)”.
For the substance “178 (ICVYTFDAHAHSLPAALTK(COCH2)I; thioether 2-19 (inferred)) [compound 178]”, the “Evaluation result” value is on record as “A (0.7 or more)”.
The entry for “179 (ICVYTFDAHAHSLLAALTK(COCH2)I; thioether 2-19 (inferred)) [compound 179]” is “B (0.5 or more and less than 0.7)”.
“180 (ICVYTFDAHAHSLIAALTK(COCH2)I; thioether 2-19 (inferred)) [compound 180]”: the “Evaluation result” value was “B (0.5 or more and less than 0.7)”.
Regarding “181 (ICVYTFDAHAHSLVAALTK(COCH2)I; thioether 2-19 (inferred)) [compound 181]”, the “Evaluation result” value was “B (0.5 or more and less than 0.7)”.
Consider “182 (ICVYTFDAHAHSLFAALTK(COCH2)I; thioether 2-19 (inferred)) [compound 182]”, for which the “Evaluation result” value is “C (0.1 or more and less than 0.5)”.
Turning to “183 (ICVYTFDAHAHSLYAALTK(COCH2)I; thioether 2-19 (inferred)) [compound 183]”, the “Evaluation result” value is “B (0.5 or more and less than 0.7)”.
“184 (ICVYTFDAHAHSLWAALTK(COCH2)I; thioether 2-19 (inferred)) [compound 184]”: the “Evaluation result” value was “C (0.1 or more and less than 0.5)”.
The entry for “185 (ICVYTFDAHAHSLNAALTK(COCH2)I; thioether 2-19 (inferred)) [compound 185]” is “A (0.7 or more)”; for “186 (ICVYTFDAHAHSLQAALTK(COCH2)I; thioether 2-19 (inferred)) [compound 186]” it is “A (0.7 or more)”; for “187 (ICVYTFDAHAHSLSAALTK(COCH2)I; thioether 2-19 (inferred)) [compound 187]” it is “A (0.7 or more)”.
The same measure for “188 (ICVYTFDAHAHSLTAALTK(COCH2)I; thioether 2-19 (inferred)) [compound 188]”: “A (0.7 or more)”; for “189 (ICVYTFDAHAHSLDAALTK(COCH2)I; thioether 2-19 (inferred)) [compound 189]”: “A (0.7 or more)”; for “190 (ICVYTFDAHAHSLEAALTK(COCH2)I; thioether 2-19 (inferred)) [compound 190]”: “A (0.7 or more)”.
The same measure for “191 (ICVYTFDAHAHSLRAALTK(COCH2)I; thioether 2-19 (inferred)) [compound 191]”: “B (0.5 or more and less than 0.7)”; for “192 (ICVYTFDAHAHSLHGALTK(COCH2)I; thioether 2-19 (inferred)) [compound 192]”: “A (0.7 or more)”; for “193 (ICVYTFDAHAHSLHLALTK(COCH2)I; thioether 2-19 (inferred)) [compound 193]”: “C (0.1 or more and less than 0.5)”.
For the substance “194 (ICVYTFDAHAHSLHIALTK(COCH2)I; thioether 2-19 (inferred)) [compound 194]”, the “Evaluation result” value is “C (0.1 or more and less than 0.5)”.
The same measure for “195 (ICVYTFDAHAHSLHVALTK(COCH2)I; thioether 2-19 (inferred)) [compound 195]”: “C (0.1 or more and less than 0.5)”; for “196 (ICVYTFDAHAHSLHFALTK(COCH2)I; thioether 2-19 (inferred)) [compound 196]”: “C (0.1 or more and less than 0.5)”; for “197 (ICVYTFDAHAHSLHYALTK(COCH2)I; thioether 2-19 (inferred)) [compound 197]”: “C (0.1 or more and less than 0.5)”.
The entry for “198 (ICVYTFDAHAHSLHWALTK(COCH2)I; thioether 2-19 (inferred)) [compound 198]” is “C (0.1 or more and less than 0.5)”; for “199 (ICVYTFDAHAHSLHNALTK(COCH2)I; thioether 2-19 (inferred)) [compound 199]” it is “A (0.7 or more)”.
The same measure for “200 (ICVYTFDAHAHSLHQALTK(COCH2)I; thioether 2-19 (inferred)) [compound 200]”: “A (0.7 or more)”; for “201 (ICVYTFDAHAHSLHSALTK(COCH2)I; thioether 2-19 (inferred)) [compound 201]”: “A (0.7 or more)”.
“202 (ICVYTFDAHAHSLHTALTK(COCH2)I; thioether 2-19 (inferred)) [compound 202]”: the “Evaluation result” value was “A (0.7 or more)”.
Regarding “203 (ICVYTFDAHAHSLHDALTK(COCH2)I; thioether 2-19 (inferred)) [compound 203]”, the “Evaluation result” value is on record as “A (0.7 or more)”.
The same measure for “204 (ICVYTFDAHAHSLHEALTK(COCH2)I; thioether 2-19 (inferred)) [compound 204]”: “A (0.7 or more)”.
The same measure for “205 (ICVYTFDAHAHSLHRALTK(COCH2)I; thioether 2-19 (inferred)) [compound 205]”: “A (0.7 or more)”.
The entry for “206 (ICVYTFDAHAHSLHHALTK(COCH2)I; thioether 2-19 (inferred)) [compound 206]” is “A (0.7 or more)”; for “207 (ICVYTFDAHAHSLHAILTK(COCH2)I; thioether 2-19 (inferred)) [compound 207]” it is “C (0.1 or more and less than 0.5)”.
With “208 (ICVYTFDAHAHSLHAVLTK(COCH2)I; thioether 2-19 (inferred)) [compound 208]”, the “Evaluation result” value is “C (0.1 or more and less than 0.5)”.
For “209 (ICVYTFDAHAHSLHASLTK(COCH2)I; thioether 2-19 (inferred)) [compound 209]”, the “Evaluation result” value is “C (0.1 or more and less than 0.5)”.
The entry for “210 (ICVYTFDAHAHSLHAAITK(COCH2)I; thioether 2-19 (inferred)) [compound 210]” is “C (0.1 or more and less than 0.5)”.
As for “211 (ICVYTFDAHAHSLHAAVTK(COCH2)I; thioether 2-19 (inferred)) [compound 211]”, the “Evaluation result” value is “C (0.1 or more and less than 0.5)”.
The entry for “212 (ICVYTFDAHAHSLHAAFTK(COCH2)I; thioether 2-19 (inferred)) [compound 212]” is “C (0.1 or more and less than 0.5)”; for “213 (ICVYTFDAHAHSLHAATTK(COCH2)I; thioether 2-19 (inferred)) [compound 213]” it is “C (0.1 or more and less than 0.5)”.
The entry for “214 (ICVYTFDAHAHSLHAALAK(COCH2)I; thioether 2-19 (inferred)) [compound 214]” is “C (0.1 or more and less than 0.5)”; for “215 (ICVYTFDAHAHSLHAALGK(COCH2)I; thioether 2-19 (inferred)) [compound 215]” it is “C (0.1 or more and less than 0.5)”; for “216 (ICVYTFDAHAHSLHAALPK(COCH2)I; thioether 2-19 (inferred)) [compound 216]” it is “C (0.1 or more and less than 0.5)”.
The entry for “217 (ICVYTFDAHAHSLHAALVK(COCH2)I; thioether 2-19 (inferred)) [compound 217]” is “C (0.1 or more and less than 0.5)”; for “218 (ICVYTFDAHAHSLHAALFK(COCH2)I; thioether 2-19 (inferred)) [compound 218]” it is “C (0.1 or more and less than 0.5)”.
In the case of “219 (ICVYTFDAHAHSLHAALNK(COCH2)I; thioether 2-19 (inferred)) [compound 219]”, the “Evaluation result” value is recorded as “A (0.7 or more)”.
